Measurements reported in patent US20240294895A1, “ENZYMATIC COMPOSITIONS FOR CARBOHYDRATE ANTIGEN CLEAVAGE ON DONOR ORGANS, METHODS AND USES ASSOCIATED THEREWITH” (THE UNIVERSITY OF BRITISH COLUMBIA, priority 2018, published 2024).

Columns and labels:
Format in all cases: biochemical, Flavonifractor plautii
[1] = substrate: CC(=O)N[C@H]1[C@H](Oc2ccc3c(C)cc(=O)oc3c2)O[C@H](CO)[C@@H](O[C@@H]2O[C@H](CO)[C@H](O)[C@H](O[C@H]3O[C@H](CO)[C@H](O)[C@H](O)[C@H]3NC(C)=O)[C@H]2O[C@@H]2O[C@@H](C)[C@@H](O)[C@@H](O)[C@@H]2O)[C@@H]1O; test: Cleavage of A antigen Type2tetra-MU by FpGalNAcDeAc_D1min WT; settings: other: WT, pH 7.4, 37° C.
Method: kcat/KM parameter were determined for A antigen subtype 1/2/4tetra-MU at pH 7.4 at 37° C. Reactions (total volume of 100 μL) were performed in black 96-plate wells and as coupled assays in 100 mM NaH2PO4 (pH 7.4) with 12 nM FpGalNAcDeacetylase 0.1 mg/mL SpHex, BgaC (BgaA for subtype II), AfcA, at varying concentrations of substrate (25 μM, 20 μM, 15 μM, 10 μM, 7.5 μM, 5 μM). The reactions were run as a series of four with controls (no FpGalNAcDeacetylase) as duplicates. The fluorescence signal (365/435 nm) resulting from MU release by hydrolysis was monitored on a Synergy H1™ plate reader (BioTek™) and converted to concentration using MU standard concentration curves determined under identical reaction conditions. Initial rates (μM/s) were determined and plotted in Grafit™ 7.0 to determine the kcat/KM (s^−1*mM^−1) parameters.
Based on structural information (not shown) and sequence alignment (not shown) FpGalNAcDeAc_D1min and FpGalNase_truncA were mutated using the QuickChange™ protocol (Zhang 2004), utilizing the primers noted in TABLE B. The mutants were purified via NiNTA and HIC columns as described above. The structural integrity of all mutants was checked via CD spectroscopy; all tested enzymes were structurally similar to their wild-type. […]

[2] = substrate: CC(=O)N[C@H]1[C@@H](O[C@H]2[C@@H](O)[C@@H](CO)O[C@@H](O[C@H]3[C@H](O)[C@@H](CO)O[C@@H](O[C@H]4[C@@H](O)[C@@H](CO)O[C@@H](Oc5ccc6c(C)cc(=O)oc6c5)[C@@H]4O)[C@@H]3NC(C)=O)[C@@H]2O[C@@H]2O[C@@H](C)[C@@H](O)[C@@H](O)[C@@H]2O)O[C@H](CO)[C@H](O)[C@@H]1O; test: Kinetic parameters of FpGalNAcDeAc_D1ext (coupled fluorescence assay, MU release); settings: other: 100 mM NaH2PO4, pH 7.4, 37° C.
Method: (§1) All kinetic assays utilizing 4-methylumbelliferone as leaving group were performed through measurement of fluorescence. To avoid measurement errors based on the inner filter effect (Palmier 2007) standard curves were used to validate the linear range of the fluorophore.
(§2) Michaelis-Menten parameters were determined for A antigen subtype 1penta-MU in 100 mM NaH2PO4, pH 7.4 at 37° C. using the coupled assays described previously (Kwan 2015). The assay was modified to allow detection of cleavage of the subtype 1 (and later 4), by use of BgaC (Jeong 2009) instead of BgaA (Singh 2014) as β-galactosidase. In addition, since A antigen subtype 1penta-MU contains an additional galactose, the concentration of BgaC was increased to 0.2 mg/mL to compensate for its need to cleave both the Gal-β-1,3-B-GlcNAc-β-1,3-Gal-β-MU and Gal-β-MU. Further, FpGalactosaminidase was included to allow the cleavage of the galactosamine-containing intermediate. Reaction setup in 100 μl was 3 nM FpGalNacDeacetylase (4.52 nM FpGalNacDeAc_D1ext, 3.55 nM FpGalNacDeAc_D1+2) and 0.01 mg/mL FpGalactosaminidase, 0.1 mg/mL SpHex, AfcA, 0.2 mg/mL BgaC and varying concentrations of substrate (5 μM-2.5 mM). The reactions were run as a series of four with controls (no FpGalNacDeacetylase) as duplicates. The fluorescence signal (365/435 nm) resulting from MU release by hydrolysis was monitored on a Synergy H1™ plate reader (BioTek™) and converted to concentration using MU standard concentration curves determined under identical reaction conditions. Initial rates (μM/s) were determined and plotted in Grafit 7.0 to determine the kinetic parameters.

[3] = substrate: CC(=O)N[C@H]1[C@@H](O[C@H]2[C@@H](O)[C@@H](CO)O[C@@H](O[C@H]3[C@H](O)[C@@H](CO)O[C@@H](O[C@H]4[C@@H](O)[C@@H](CO)O[C@@H](Oc5ccc6c(C)cc(=O)oc6c5)[C@@H]4O)[C@@H]3NC(C)=O)[C@@H]2O[C@@H]2O[C@@H](C)[C@@H](O)[C@@H](O)[C@@H]2O)O[C@H](CO)[C@H](O)[C@@H]1O; test: Kinetic parameters of FpGalNAcDeAc_D1+2 (coupled fluorescence assay, MU release); settings: other: 100 mM NaH2PO4, pH 7.4, 37° C.
Method: as §1, §2

[4] = substrate: CC(=O)N[C@H]1[C@H](O[C@H]2[C@@H](O)[C@@H](CO)O[C@@H](Oc3ccc4c(C)cc(=O)oc4c3)[C@@H]2O)O[C@H](CO)[C@@H](O)[C@@H]1O[C@@H]1O[C@H](CO)[C@H](O)[C@H](O[C@H]2O[C@H](CO)[C@H](O)[C@H](O)[C@H]2N)[C@H]1O[C@@H]1O[C@@H](C)[C@@H](O)[C@@H](O)[C@@H]1O; test: Kinetic parameters of FpGalNase_truncA (coupled fluorescence assay, MU release); settings: other: 100 mM NaH2PO4, pH 7.4, 37° C.
Method: as §1
Michaelis-Menten parameter was determined for GalN antigen subtype 1penta-MU and A antigen subtype 1penta-MU in 100 mM NaH2PO4, pH 7.4 at 37° C. Reaction was performed in 100 μl with 3.4 nM FpGalactosaminidase (5.31 nM FpGalNase_truncA) and 0.1 mg/mL SpHex, AfcA, 0.2 mg/mL BgaC and varying concentrations of substrate (5 μM-2 mM). The reactions were run as a series of four with controls (no FpGalactosaminidase) as duplicates. The fluorescence signal (365/435 nm) resulting from MU release by hydrolysis was monitored by Synergy H1™ plate reader [BioTek™] and converted to concentration using MU standard concentration curves determined under identical reaction conditions. Initial rates (μM/s) were determined and plotted in Grafit 7.0™ to determine the kinetic parameters.

B1: Flavonifractor plautii GalNAcDeacetylase FpGalNAcDeAc_D1min, WT (Flavonifractor plautii) (protein)
chain: ADSSESALNKAPGYQDFPAYYSDSAHADDQVTHPDVVVLEEPWNGYRYWAVYTPNVMRISIYENPSIVASSDGVHWVEPEGLSNPIEPQPPSTRYHNCDADMVYNAEYDAMMAYWNWADDQGGGVGAEVRLRISYDGVHWGVPVTYDEMTRVWSKPTSDAERQVADGEDDFITAIASPDRYDMLSPTIVYDDFRDVFILWANNTGDVGYQNGQANFVEMRYSDDGITWGEPVRVNGFLGLDENGQQLAPWHQDVQYVPDLKEFVCISQCFAGRNPDGSVLHLTTSKDGVNWEQVGTKPLLSPGPDGSWDDFQIYRSSFYYEPGSSAGDGTMRVWYSALQKDTNNKMVADSSGNLTIQAKSEDDRIWRIGYAENSFVEMMRVLLDDPGYTTPALVSGNSLMLSAETTSLPTGDVMKLETSFAPVDTSDQVVKYTSSDPDVATVDEFGTITGVSVGSARIMAETREGLSDDLEIAVVENPYTLIPQSNMTATATSVYGGTTEGPASNVLDGNVRTIWHTNYAPKDELPQSITVSFDQPYTVGRFVYTPRQNGTNGIISEYELYAIHQDGSKDLVASGSDWALDAKDKTVSFAPVEAVGLELKAIAGAGGFGTAAELNVYAYGPIEPAPVYVPVDDRDASLVFTGAWNSDSNGSFYEGTARYTNEIGASVEFTFVGTAIRWYGQNDVNFGAAEVYVDGVLAGEVNVYGPAAAQQLLFEADGLAYGKHTIRIVCVSPVVDFDYFSYVGE
B1 showed a kcat/Km [1] of 8210 ± 2070 M⁻¹ s⁻¹.

B2: Flavonifractor plautii GalNAcDeacetylase (FpGalNAcDeAc) truncation _D1ext (Flavonifractor plautii) (protein)
chain: B1 chain
B2 showed a Km [2] of 212 ± 37 µM, a kcat [2] of 5.37 s⁻¹ and a kcat/Km [2] of 25230 M⁻¹ s⁻¹.

B3: Flavonifractor plautii GalNAcDeacetylase (FpGalNAcDeAc) truncation _D1 + 2 (Flavonifractor plautii) (protein)
chain: B1 chain
B3 was tested, and the Km [3] was 265 ± 43 µM, the kcat [3] was 9.99 s⁻¹ and the kcat/Km [3] was 37590 M⁻¹ s⁻¹.

B4: Flavonifractor plautii Galactosaminidase (FpGalNase) truncation _truncA (Flavonifractor plautii) (protein)
chain: AAPATDTGNAGLIAEGDYAIAGNGVRVTYDADGQTITLYRTEGSGLIQMSKPSPLGGPVIGGQEVQDFSHISCDVEQSTSGVMGSGQRMTITSQSMSTGLIRTYVLETSDIEEGVVYTATSYEAGASDVEVSWFIGSVYELYGAEDRIWSYNGGGEGPMHYYDTLQKIDLTDSGKFSRENKQDDTAASIPVSDIYIADGGITVGDASATRREVHTPVQETSDSAQVSIGWPGKVIAAGSVIEIGESFAVVHPGDYYNGLRGYKNAMDHLGVIMPAPGDIPDSSYDLRWESWGWGFNWTIDLIIGKLDELQAAGVKQITLDDGWYTNAGDWALNPEKFPNGASDALRLTDAIHEHGMTALLWWRPCDGGIDSILYQQHPEYFVMDADGRPARLPTPGGGTNPSLGYALCPMADGAIASQVDFVNRAMNDWGFDGFKGDYVWSMPECYNPAHNHASPEESTEKQSEIYRVSYEAMVANDPNVFNLLCNCGTPQDYYSLPYMTQIATADPTSVDQTRRRVKAYKALMGDYFPVTADHNNIWYPSAVGTGSVLIEKRDLSGTAKEEYEKWLGIADTVQLQKGRFIGDLYSYGFDPYETYVVEKDGVMYYAFYKDGSKYSPTGYPDIELKGLDPNKMYRIVDYVNDRVVATNLMGDNAVFNTRFSDYLLVKAVEISEPDPEPVDPDYGFTSVDDRDEALIYTGTWHDDNNASFSEGTARYTNSTDASVVFSFTGTSIRWYGQRDTNFGTAEVYLDDELKTTVDANGAAEAGVCLFEALDLPAAEHTIKIVCKSGVIDIDRFAYEAATLEPIYEKVDALSDRITYVGNWEEYHNSEFYMGNAMRTDEAGAYAELTFRGTAVRLYAEMSFNFGTADVYLDGELVENIILYGQEATGQLMFERTGLEEGEHTIRLVQNAWNINLDYISYLPEQDQPTPPETTVTVDAMDAQLVYTGVWNDDYHDVFQEGTARYASSAGASVEFEFTGSEIRWYGQNDSNFGVASVYIDNEFVQQVNVNGAAAVGKLLFQKADLPAGSHTIRIVCDTPVIDLDYLTYTTNA
For B4, the Km [4] was 54.7 ± 3.1 µM, the kcat [4] was 1.86 s⁻¹ and the kcat/Km [4] was 34080 M⁻¹ s⁻¹.
